Target: His/S-tagged OCRL1, full length, recombinant (human, UniProt Q01968 1-901)
Experiment: pull-down

Chain of His/S-tagged OCRL1, full length, recombinant (Q01968 whole entry): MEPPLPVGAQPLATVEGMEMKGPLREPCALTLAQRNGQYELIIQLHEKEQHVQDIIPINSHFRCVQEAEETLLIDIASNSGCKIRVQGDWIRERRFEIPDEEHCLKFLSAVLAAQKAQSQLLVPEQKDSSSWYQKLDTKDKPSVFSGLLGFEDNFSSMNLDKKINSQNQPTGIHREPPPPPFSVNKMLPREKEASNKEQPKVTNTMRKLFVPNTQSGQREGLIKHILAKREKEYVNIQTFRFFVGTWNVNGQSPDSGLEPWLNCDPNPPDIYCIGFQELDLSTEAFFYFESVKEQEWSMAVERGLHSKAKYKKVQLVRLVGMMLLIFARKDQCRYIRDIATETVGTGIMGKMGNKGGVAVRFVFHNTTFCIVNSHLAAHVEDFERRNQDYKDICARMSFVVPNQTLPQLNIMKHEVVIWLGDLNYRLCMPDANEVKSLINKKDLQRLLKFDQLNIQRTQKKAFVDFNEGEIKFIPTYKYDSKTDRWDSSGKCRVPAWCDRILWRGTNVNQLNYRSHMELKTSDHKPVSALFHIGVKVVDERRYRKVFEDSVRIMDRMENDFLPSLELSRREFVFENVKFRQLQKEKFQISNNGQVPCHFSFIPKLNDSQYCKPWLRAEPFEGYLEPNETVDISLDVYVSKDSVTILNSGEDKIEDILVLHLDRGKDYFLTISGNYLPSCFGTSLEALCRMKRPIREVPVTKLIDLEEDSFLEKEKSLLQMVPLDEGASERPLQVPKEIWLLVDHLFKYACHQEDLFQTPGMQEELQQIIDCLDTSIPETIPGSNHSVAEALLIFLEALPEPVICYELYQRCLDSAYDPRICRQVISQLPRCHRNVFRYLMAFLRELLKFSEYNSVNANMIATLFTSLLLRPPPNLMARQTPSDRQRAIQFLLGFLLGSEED

B1: GST APPL1 (aa 403-413), minimal OCRL1 binding domain of APPL1 (peptide)
chain: SFQQRHESLRP
B1: binds.

— PMC3046058 (Molecular Biology of the Cell, 2011)
